Data as given in US20020004485A1 (University of California, published 2002).

How the values were obtained:
[1] = target: MC receptor endogenous to Xenopus laevis melanophores (Xenopus laevis); assay: cell-based or functional assay
[2] = target: atypical MC receptor of Cos-7 cells; assay: cell-based or functional assay

EC50 of α-MSH alone in frog melanophores [1]: 0.03 nM
EC50 of α-MSH for cAMP production in Cos-7 cells [2]: ~80 nM
Binder: SYSMEHFRWGKPV (ligand, UniProt P01189 138-150, looked up) [α-melanocyte stimulating hormone]
